Experimental data: paper PMC7323586 (Journal of molecular biology, 2020)

Biological target: the molecule itself
Assay: SEC

B1: Bacillus subtilis xanthine phosphoribosyltransferase (XPRT), hexahistidine tag removed (enzyme, UniProt P42085 1-194, looked up)
chain: MEALKRKIEEEGVVLSDQVLKVDSFLNHQIDPLLMQRIGDEFASRFAKDGITKIVTIESSGIAPAVMTGLKLGVPVVFARKHKSLTLTDNLLTASVYSFTKQTESQIAVSGTHLSDQDHVLIIDDFLANGQAAHGLVSIVKQAGASIAGIGIVIEKSFQPGRDELVKLGYRVESLARIQSLEEGKVSFVQEVHS
stoichiometry N: 2
